Data taken from patent publication US20080311132A1.

Experiments:
C5 = C5 (UniProt P01031); assay: SPR (Biacore), CVF on the chip, C5 in solution
Factor H = Factor H (UniProt P08603); assay: SPR (Biacore), CVF on the chip, factor H in solution
Factor B [1] = target: Factor B (UniProt P00751); assay: SPR (Biacore), CVF on the chip, factor B in solution, in EDTA
Factor B [2] = target: Factor B (UniProt P00751); assay: SPR (Biacore), CVF on the chip, factor B in solution, with Mg
Factor B [3] = target: Factor B (UniProt P00751); assay: SPR (Biacore), CVF on the chip, factor B in solution, with factor D and Mg
[4] = target: Bb, the activated form of factor B (UniProt P00751); assay: SPR (Biacore) at 25° C., half-life of the C3 convertase formed on CVF on the chip

Chain of Cobra Venom Factor (Q91132 23-649 limits assumed): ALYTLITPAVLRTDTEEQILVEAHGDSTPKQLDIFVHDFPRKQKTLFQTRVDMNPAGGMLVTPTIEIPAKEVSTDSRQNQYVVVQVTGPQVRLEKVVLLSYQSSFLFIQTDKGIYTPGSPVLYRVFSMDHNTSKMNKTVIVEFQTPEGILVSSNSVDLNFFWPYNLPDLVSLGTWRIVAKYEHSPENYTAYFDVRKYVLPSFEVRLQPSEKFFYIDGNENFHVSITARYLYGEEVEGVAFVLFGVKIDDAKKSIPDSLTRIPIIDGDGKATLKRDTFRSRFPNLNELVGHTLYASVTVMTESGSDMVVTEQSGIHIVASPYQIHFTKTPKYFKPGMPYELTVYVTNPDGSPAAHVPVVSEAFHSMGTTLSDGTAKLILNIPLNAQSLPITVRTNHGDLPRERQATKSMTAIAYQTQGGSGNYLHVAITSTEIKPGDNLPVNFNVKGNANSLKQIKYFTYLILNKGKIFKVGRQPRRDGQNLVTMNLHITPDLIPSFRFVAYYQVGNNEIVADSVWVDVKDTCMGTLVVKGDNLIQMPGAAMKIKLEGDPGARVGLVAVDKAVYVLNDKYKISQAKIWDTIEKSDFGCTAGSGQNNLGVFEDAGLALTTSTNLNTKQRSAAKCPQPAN
Chain of Cobra Venom Factor (Q91132 733-984 limits assumed): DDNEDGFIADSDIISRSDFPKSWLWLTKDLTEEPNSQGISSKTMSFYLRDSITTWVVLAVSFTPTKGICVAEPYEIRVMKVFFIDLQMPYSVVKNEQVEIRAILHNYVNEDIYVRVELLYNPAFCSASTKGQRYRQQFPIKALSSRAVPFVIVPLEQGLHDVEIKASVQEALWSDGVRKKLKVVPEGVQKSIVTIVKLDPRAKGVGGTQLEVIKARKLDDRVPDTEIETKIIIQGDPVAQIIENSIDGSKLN
Chain of Cobra Venom Factor (Q91132 1264-1642 limits assumed): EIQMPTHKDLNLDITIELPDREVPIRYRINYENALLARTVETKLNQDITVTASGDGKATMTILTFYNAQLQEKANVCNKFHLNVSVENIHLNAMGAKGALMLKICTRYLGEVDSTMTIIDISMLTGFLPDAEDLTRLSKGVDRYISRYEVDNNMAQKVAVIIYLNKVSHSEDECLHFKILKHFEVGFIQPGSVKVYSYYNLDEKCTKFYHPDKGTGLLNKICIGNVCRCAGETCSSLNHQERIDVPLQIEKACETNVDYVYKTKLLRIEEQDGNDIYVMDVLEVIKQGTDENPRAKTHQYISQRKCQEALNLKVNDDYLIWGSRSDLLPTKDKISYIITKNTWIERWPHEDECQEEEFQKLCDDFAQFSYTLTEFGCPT
Chain of Factor B (P00751 26-764 limits assumed): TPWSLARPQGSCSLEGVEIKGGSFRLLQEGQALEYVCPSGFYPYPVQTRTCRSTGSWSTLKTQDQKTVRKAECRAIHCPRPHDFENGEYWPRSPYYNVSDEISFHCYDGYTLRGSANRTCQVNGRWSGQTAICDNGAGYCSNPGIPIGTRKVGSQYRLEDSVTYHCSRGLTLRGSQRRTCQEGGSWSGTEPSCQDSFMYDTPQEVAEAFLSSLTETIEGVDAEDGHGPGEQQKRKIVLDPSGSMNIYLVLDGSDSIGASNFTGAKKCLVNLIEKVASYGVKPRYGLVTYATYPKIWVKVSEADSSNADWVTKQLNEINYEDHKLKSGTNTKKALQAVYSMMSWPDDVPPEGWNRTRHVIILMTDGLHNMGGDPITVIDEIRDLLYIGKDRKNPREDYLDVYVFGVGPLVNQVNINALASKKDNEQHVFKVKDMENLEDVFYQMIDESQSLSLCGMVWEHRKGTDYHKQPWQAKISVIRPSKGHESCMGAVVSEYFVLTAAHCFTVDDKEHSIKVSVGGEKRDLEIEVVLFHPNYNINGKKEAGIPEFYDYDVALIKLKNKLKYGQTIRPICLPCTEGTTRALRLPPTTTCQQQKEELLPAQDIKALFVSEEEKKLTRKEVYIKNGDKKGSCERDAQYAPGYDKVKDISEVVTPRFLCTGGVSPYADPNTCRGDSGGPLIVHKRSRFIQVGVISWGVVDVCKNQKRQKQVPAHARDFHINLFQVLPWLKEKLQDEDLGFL
Chain of C5 (P01031 19-673 limits assumed, form in doubt, chain 1 of 2): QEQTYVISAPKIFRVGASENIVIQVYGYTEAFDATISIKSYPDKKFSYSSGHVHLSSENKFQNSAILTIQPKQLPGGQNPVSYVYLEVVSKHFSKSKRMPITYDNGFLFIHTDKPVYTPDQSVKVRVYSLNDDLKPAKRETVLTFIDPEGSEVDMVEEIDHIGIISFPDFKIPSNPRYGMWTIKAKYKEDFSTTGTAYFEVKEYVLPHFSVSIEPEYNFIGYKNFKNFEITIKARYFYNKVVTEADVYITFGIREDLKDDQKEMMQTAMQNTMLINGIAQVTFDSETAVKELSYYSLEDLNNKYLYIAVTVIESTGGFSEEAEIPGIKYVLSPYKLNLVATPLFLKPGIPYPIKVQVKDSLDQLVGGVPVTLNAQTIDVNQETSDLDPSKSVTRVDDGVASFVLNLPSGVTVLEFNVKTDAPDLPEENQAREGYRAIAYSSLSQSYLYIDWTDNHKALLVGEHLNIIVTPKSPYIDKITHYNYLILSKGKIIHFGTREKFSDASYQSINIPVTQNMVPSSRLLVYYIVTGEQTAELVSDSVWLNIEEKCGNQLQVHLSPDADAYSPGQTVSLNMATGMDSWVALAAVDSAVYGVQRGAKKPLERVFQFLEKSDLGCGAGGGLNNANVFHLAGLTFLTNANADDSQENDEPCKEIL
Chain of C5 (P01031 678-1676 limits assumed, form in doubt, chain 2 of 2): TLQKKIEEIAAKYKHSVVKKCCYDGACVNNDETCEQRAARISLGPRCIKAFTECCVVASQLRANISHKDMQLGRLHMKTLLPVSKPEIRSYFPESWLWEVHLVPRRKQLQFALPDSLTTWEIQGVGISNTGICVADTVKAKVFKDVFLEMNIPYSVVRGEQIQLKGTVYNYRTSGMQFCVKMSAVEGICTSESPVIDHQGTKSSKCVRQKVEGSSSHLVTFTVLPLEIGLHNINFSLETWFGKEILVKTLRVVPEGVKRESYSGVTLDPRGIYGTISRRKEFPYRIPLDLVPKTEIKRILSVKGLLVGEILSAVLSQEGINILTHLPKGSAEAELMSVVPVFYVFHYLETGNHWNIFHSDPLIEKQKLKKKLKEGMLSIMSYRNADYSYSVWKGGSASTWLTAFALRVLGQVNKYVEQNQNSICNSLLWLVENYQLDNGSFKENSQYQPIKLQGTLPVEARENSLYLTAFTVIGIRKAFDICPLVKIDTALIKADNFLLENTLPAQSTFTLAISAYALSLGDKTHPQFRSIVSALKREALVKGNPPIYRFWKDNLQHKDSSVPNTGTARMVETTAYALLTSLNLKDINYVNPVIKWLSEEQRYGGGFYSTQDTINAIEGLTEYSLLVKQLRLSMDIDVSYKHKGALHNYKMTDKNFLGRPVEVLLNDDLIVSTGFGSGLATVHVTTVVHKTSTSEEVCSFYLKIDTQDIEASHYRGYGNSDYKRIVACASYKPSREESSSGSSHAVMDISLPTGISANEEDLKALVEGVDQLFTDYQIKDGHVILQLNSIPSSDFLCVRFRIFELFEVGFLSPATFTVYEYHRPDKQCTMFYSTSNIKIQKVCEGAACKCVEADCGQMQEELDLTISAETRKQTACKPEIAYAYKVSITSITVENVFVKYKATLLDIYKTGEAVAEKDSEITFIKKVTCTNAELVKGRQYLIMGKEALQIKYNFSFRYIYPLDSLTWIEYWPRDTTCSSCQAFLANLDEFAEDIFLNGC
Chain of Factor H (P08603 19-1231 limits assumed): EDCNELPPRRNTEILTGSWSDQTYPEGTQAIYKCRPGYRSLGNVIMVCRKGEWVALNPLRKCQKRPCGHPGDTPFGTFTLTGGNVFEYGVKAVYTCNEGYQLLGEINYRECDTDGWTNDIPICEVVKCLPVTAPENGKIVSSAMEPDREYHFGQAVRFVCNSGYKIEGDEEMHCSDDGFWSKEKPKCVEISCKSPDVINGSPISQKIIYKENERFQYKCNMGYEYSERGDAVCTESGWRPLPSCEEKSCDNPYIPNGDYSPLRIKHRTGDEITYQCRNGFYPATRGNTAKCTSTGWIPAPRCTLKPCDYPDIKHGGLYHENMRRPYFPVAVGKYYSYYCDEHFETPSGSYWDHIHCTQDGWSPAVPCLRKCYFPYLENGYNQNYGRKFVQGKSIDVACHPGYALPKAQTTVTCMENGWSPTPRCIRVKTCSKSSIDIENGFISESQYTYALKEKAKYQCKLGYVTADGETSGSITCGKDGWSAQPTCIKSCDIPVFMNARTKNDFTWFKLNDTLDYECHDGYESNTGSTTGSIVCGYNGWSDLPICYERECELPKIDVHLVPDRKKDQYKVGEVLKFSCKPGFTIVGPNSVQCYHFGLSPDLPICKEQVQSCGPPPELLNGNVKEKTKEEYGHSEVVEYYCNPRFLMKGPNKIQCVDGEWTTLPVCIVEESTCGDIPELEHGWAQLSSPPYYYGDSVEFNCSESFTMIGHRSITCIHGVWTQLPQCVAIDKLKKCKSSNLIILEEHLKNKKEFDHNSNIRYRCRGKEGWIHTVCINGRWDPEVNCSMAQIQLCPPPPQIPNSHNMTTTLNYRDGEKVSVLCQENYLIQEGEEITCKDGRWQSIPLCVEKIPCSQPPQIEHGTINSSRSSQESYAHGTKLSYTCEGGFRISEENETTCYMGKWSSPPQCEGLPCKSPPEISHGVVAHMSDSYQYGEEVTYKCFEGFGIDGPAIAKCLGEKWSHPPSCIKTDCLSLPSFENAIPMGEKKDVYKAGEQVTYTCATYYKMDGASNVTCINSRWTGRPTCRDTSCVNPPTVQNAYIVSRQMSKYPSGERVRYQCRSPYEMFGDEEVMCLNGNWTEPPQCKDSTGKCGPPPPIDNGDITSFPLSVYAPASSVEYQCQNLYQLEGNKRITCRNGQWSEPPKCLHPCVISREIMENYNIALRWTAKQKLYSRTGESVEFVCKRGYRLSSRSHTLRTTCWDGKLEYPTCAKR

Work on “Cobra Venom Factor (from UniProt Q91132 23-649; Q91132 733-984; Q91132 1264-1642)” yielded an Amount of protein bound (RU) (C5) of 617 RU, an Amount of protein bound (RU) (Factor H) of -14 RU and an Amount of protein bound (RU) (Factor B [1]) of 99 RU. For the same substance, the Amount of protein bound (RU) (Factor B [2]) was 298 RU, the Amount of protein bound (RU) (Factor B [3]) was 370 RU and the T½ of C3 convertase [4] was 18.3 h.
